Experimental data as given in patent US20140154255A1 (AbbVie / Abbott, published 2014).

Columns and labels:
[1] = target: T1, unlabeled human VEGF (ELISA coat) (human, UniProt P15692-4 27-191, limits assumed); test: ELISA 1 hr, EC50 WT/EC50 mutant
Method: (§1) To detect identified variants binding to antigen, ELISA plates (Nunc-Immuno MaxiSorp plates, Nalge Nunc, Rochester, N.Y.) were coated overnight at 4° C. with unlabeled human VEGF at 1 μg/mL in 0.2 M sodium carbonate-bicarbonate buffer (pH 9.4, Pierce, Rockford, Ill.). The plates were then blocked with SuperBlock Blocking Buffer (Pierce, Rockford, Ill.) for 30 min and washed with Washing Buffer (PBS containing 0.1% Tween 20). All the washing steps were performed for three times. […] The plates were washed and 100 μL of goat anti-human kappa HRP-conjugated antibody (Southern Biotech, Birmingham, Ala.) diluted at 1:1000 in ELISA buffer was added to each well. After 30 minutes of incubation, plates were washed and bound antibodies were detected by addition of TMB 1 Component HRP Microwell substrate (BioFx #TMBW-1000-01). The reaction was terminated by addition of 100 μL/well of 650 nM Stop Reagent for TMB Microwell substrate and the absorbance was measured at 650 nm using a VERSAmax microplate reader (Molecular Devices, Sunnyvale, Calif.). Data were fitted using nonlinear regression with the software […]

[2] = target: T2, VEGF (R&D systems, Minneapolis, Minn.) (UniProt P15692-4 27-191, limits assumed); test: BIAcore SPR, improvement over WT
Method: (§2) RL was kept low to minimize avidity due to the dimeric nature of VEGF. No capture of the antibody was made on the reference surface to serve as a negative control. Subsequently, VEGF was injected to all flow cells at a flow rate of 50 μL/min for two minutes to monitor association followed by a 25-minute flow of HBS-P running buffer (10 mM HEPES, 150 mM sodium chloride, 0.005% P-20, pH 7.4) to monitor the dissociation phase. At each cycle, VEGF, in 6 different concentrations of VEGF ranging between 0 nM and 512 nM and at four-fold increments, was injected over the surface. […] Binding data were fit to the 1:1 Langmuir model to extract binding constants from the BIAevaluate software. Double referencing was applied in each analysis to eliminate background responses from the reference surface and buffer only control. All the binding kinetics data were analyzed at least three separate determinations.

[3] = target: T3, human VEGF-A residues 27-191 of Accession #AAV38412 (human, UniProt P15692 27-191); test: BIAcore SPR
T3 construct: range 27-191
Method: (§3) The binding kinetics and affinity of the antibodies for VEGF (human VEGF-A residues 27-191 of Accession #AAV38412) was determined by using a BIAcore T200 surface plasmon resonance system (BIAcore, GE Healthcare, Piscataway, N.J.). Coupling running buffer was HBS-EP+ running buffer (10 mM HEPES, 150 mM sodium chloride, 3 mM EDTA 0.05% P-20, pH 7.4); assay running buffer was HBS-EP+ with 300 mM sodium chloride and 0.1 mg/mL BSA (Sigma A7906). Polyclonal goat anti-human Fc (Thermo Scientific prod#31125) was first immobilized to the biosensor surface in 10 mM sodium acetate, pH 4.5 using standard BIAcore amine coupling reagents (N-ethyl-N′-dimethylamino-propylcarbodiimide, EDC; N-hydroxysuccinimide, NHS; and ethanolamine HCl, pH 8.5). For binding kinetics assay a series of cycles were performed, each cycle consisted of 1) mAb capture, 2) Ag or buffer injection, 3) dissociation phase and 4) regeneration. Briefly, anti-VEGF antibodies were captured on parallel surfaces at a low flow rate of 10 μL/min. Capture levels were kept low to minimize avidity due to the dimeric nature of VEGF. No capture of the antibody was made on the reference surface to serve for primary referencing and as a negative control. Subsequently, VEGF or buffer only was injected to all flow cells at a flow rate of 80 μL/min for three minutes to monitor association followed by a 20-minute flow of assay rinning buffer at a flow rate of 80 μL/min to monitor dissociation. […] At the end of each cycle the surface was regenerated with 10 mM glycine, pH 1.5 at a flow rate of 60 μL/min in pulses of 60 and 10 sec. Binding data were fit to the 1:1 Langmuir model with mass transport term included using Biacore T200 Evaluation Software to determine the binding constants.

[4] = target: T3, human VEGF-A residues 27-191 of …; test: BIAcore SPR, KD WT/KD mutant
Method: as §3

[5] = target: T2, VEGF (R&D systems, Minneapolis, Minn.); test: BIAcore SPR, mutant/WT
Method: as §2

[6] = target: T1, unlabeled human VEGF (ELISA coat); test: ELISA overnight, EC50 WT/EC50 mutant
Method: as §1

[7] = target: T2, VEGF (R&D systems, Minneapolis, Minn.); test: BIAcore SPR, WT/mutant
Method: as §2

[8] = target: T2, VEGF (R&D systems, Minneapolis, Minn.); test: BIAcore SPR
Method: as §2

[9] = target: T3, human VEGF-A residues 27-191 of …; test: SS DLL4-VEGF DVD-Ig format; BIAcore by paragraph 262
Method: as §3

T2 sequence (P15692 other isoform, or with tags, fused parts or gaps limits assumed): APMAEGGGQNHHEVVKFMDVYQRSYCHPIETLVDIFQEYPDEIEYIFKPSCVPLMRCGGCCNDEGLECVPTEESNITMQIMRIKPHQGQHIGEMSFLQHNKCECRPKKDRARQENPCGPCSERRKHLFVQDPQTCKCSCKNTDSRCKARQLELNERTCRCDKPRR
T3 sequence (P15692 other isoform, or with tags, fused parts or gaps limits assumed): as above
T1 sequence (P15692 other isoform, or with tags, fused parts or gaps limits assumed): as above

B1: 95 (antibody, human IgG1, V domains shown)
VH: EVQLVESGGGLVQPGGSLRLSCAASGYTFTNYGMNWVRQAPGKGLEWVGWINTYTGEPTYAADFKRRFTFSLDTSKSTAYLQMNSLRAEDTAVYYCAKYPDYYGSSHWYFDVWGQGTLVTVSS
VL: DIQMTQSPSSLSASVGDRVTITCSASQDISNYLNWYQQKPGKAPKVLIYFTSSLHSGVPSRFSGSGSGTDFTLTISSLQPEDFATYYCQQYSTVPWTFGQGTKVEIKR
[1]
  ELISA 1hr binding: 4.5 fold
[2]
  ΔKD: 1.3 fold
[3]
  Kd: 1.3 nM
  koff: 0.000351 s⁻¹
  kon: 270000 M⁻¹ s⁻¹
[4]
  affinity improvement: 0.4 fold
[5]
  Δkon: 1.5 fold
[6]
  ELISA o/n binding: 3 fold
[7]
  Δkoff: 0.9 fold
[8]
  Kd: 1.54 nM
  koff: 0.000396 s⁻¹
  kon: 262000 M⁻¹ s⁻¹

B2: E 56 Q (bispecific antibody)
VH: EVQLVESGGGLVQPGGSLRLSCAASGFTFSNFPMAWVRQAPGKGLEWVATISSSDGTTYYRDSVKGRFTISRDNAKNSLYLQMNSLRAEDTAVYYCARGYYNSPFAYWGQGTLVTVSSASTKGPEVQLVESGGGLVQPGGSLRLSCAASGYTFTNYGMNWVRQAPGKGLEWVGWINTYTGQPTYAADFKRRFTFSLDTSKSTAYLQMNSLRAEDTAVYYCAKYPHYYGSSHWYFDVWGQGTLVTVSS
VL: DIQMTQSPSSLSASVGDRVTITCRASEDIYSNLAWYQQKPGKAPKLLIYDTNNLADGVPSRFSGSGSGTDFTLTISSLQPEDFATYYCQQYNNYPPTFGQGTKLEIKRTVAAPDIQMTQSPSSLSASVGDRVTITCSASQDISNYLNWYQQKPGKAPKVLIYFTSSLHSGVPSRFSGSGSGTDFTLTISSLQPEDFATYYCQQYSTVPWTFGQGTKVEIK
notes: also called SS DLL4-VEGF DVD-Ig variant E56Q
[9]
  Affinity relative to WT: 0.7 fold

B3: E 56 R (bispecific antibody)
VH: EVQLVESGGGLVQPGGSLRLSCAASGFTFSNFPMAWVRQAPGKGLEWVATISSSDGTTYYRDSVKGRFTISRDNAKNSLYLQMNSLRAEDTAVYYCARGYYNSPFAYWGQGTLVTVSSASTKGPEVQLVESGGGLVQPGGSLRLSCAASGYTFTNYGMNWVRQAPGKGLEWVGWINTYTGRPTYAADFKRRFTFSLDTSKSTAYLQMNSLRAEDTAVYYCAKYPHYYGSSHWYFDVWGQGTLVTVSS
VL: DIQMTQSPSSLSASVGDRVTITCRASEDIYSNLAWYQQKPGKAPKLLIYDTNNLADGVPSRFSGSGSGTDFTLTISSLQPEDFATYYCQQYNNYPPTFGQGTKLEIKRTVAAPDIQMTQSPSSLSASVGDRVTITCSASQDISNYLNWYQQKPGKAPKVLIYFTSSLHSGVPSRFSGSGSGTDFTLTISSLQPEDFATYYCQQYSTVPWTFGQGTKVEIK
notes: also called SS DLL4-VEGF DVD-Ig variant E56R
[9]
  Affinity relative to WT: 0.9 fold

B4: E 56 W (bispecific antibody)
VH: EVQLVESGGGLVQPGGSLRLSCAASGFTFSNFPMAWVRQAPGKGLEWVATISSSDGTTYYRDSVKGRFTISRDNAKNSLYLQMNSLRAEDTAVYYCARGYYNSPFAYWGQGTLVTVSSASTKGPEVQLVESGGGLVQPGGSLRLSCAASGYTFTNYGMNWVRQAPGKGLEWVGWINTYTGWPTYAADFKRRFTFSLDTSKSTAYLQMNSLRAEDTAVYYCAKYPHYYGSSHWYFDVWGQGTLVTVSS
VL: DIQMTQSPSSLSASVGDRVTITCRASEDIYSNLAWYQQKPGKAPKLLIYDTNNLADGVPSRFSGSGSGTDFTLTISSLQPEDFATYYCQQYNNYPPTFGQGTKLEIKRTVAAPDIQMTQSPSSLSASVGDRVTITCSASQDISNYLNWYQQKPGKAPKVLIYFTSSLHSGVPSRFSGSGSGTDFTLTISSLQPEDFATYYCQQYSTVPWTFGQGTKVEIK
notes: also called SS DLL4-VEGF DVD-Ig variant E56W
[9]
  Affinity relative to WT: 0.6 fold

B5: G 55 Q (bispecific antibody)
VH: EVQLVESGGGLVQPGGSLRLSCAASGFTFSNFPMAWVRQAPGKGLEWVATISSSDGTTYYRDSVKGRFTISRDNAKNSLYLQMNSLRAEDTAVYYCARGYYNSPFAYWGQGTLVTVSSASTKGPEVQLVESGGGLVQPGGSLRLSCAASGYTFTNYGMNWVRQAPGKGLEWVGWINTYTQEPTYAADFKRRFTFSLDTSKSTAYLQMNSLRAEDTAVYYCAKYPHYYGSSHWYFDVWGQGTLVTVSS
VL: DIQMTQSPSSLSASVGDRVTITCRASEDIYSNLAWYQQKPGKAPKLLIYDTNNLADGVPSRFSGSGSGTDFTLTISSLQPEDFATYYCQQYNNYPPTFGQGTKLEIKRTVAAPDIQMTQSPSSLSASVGDRVTITCSASQDISNYLNWYQQKPGKAPKVLIYFTSSLHSGVPSRFSGSGSGTDFTLTISSLQPEDFATYYCQQYSTVPWTFGQGTKVEIK
notes: also called SS DLL4-VEGF DVD-Ig variant G55Q
[9]
  Affinity relative to WT: 0.9 fold

B6: E 56 T (bispecific antibody)
VH: EVQLVESGGGLVQPGGSLRLSCAASGFTFSNFPMAWVRQAPGKGLEWVATISSSDGTTYYRDSVKGRFTISRDNAKNSLYLQMNSLRAEDTAVYYCARGYYNSPFAYWGQGTLVTVSSASTKGPEVQLVESGGGLVQPGGSLRLSCAASGYTFTNYGMNWVRQAPGKGLEWVGWINTYTGTPTYAADFKRRFTFSLDTSKSTAYLQMNSLRAEDTAVYYCAKYPHYYGSSHWYFDVWGQGTLVTVSS
VL: DIQMTQSPSSLSASVGDRVTITCRASEDIYSNLAWYQQKPGKAPKLLIYDTNNLADGVPSRFSGSGSGTDFTLTISSLQPEDFATYYCQQYNNYPPTFGQGTKLEIKRTVAAPDIQMTQSPSSLSASVGDRVTITCSASQDISNYLNWYQQKPGKAPKVLIYFTSSLHSGVPSRFSGSGSGTDFTLTISSLQPEDFATYYCQQYSTVPWTFGQGTKVEIK
notes: also called SS DLL4-VEGF DVD-Ig variant E56T
[9]
  Affinity relative to WT: 0.8 fold

B7: N 31 G (bispecific antibody)
VH: EVQLVESGGGLVQPGGSLRLSCAASGFTFSNFPMAWVRQAPGKGLEWVATISSSDGTTYYRDSVKGRFTISRDNAKNSLYLQMNSLRAEDTAVYYCARGYYNSPFAYWGQGTLVTVSSASTKGPEVQLVESGGGLVQPGGSLRLSCAASGYTFTGYGMNWVRQAPGKGLEWVGWINTYTGEPTYAADFKRRFTFSLDTSKSTAYLQMNSLRAEDTAVYYCAKYPHYYGSSHWYFDVWGQGTLVTVSS
VL: DIQMTQSPSSLSASVGDRVTITCRASEDIYSNLAWYQQKPGKAPKLLIYDTNNLADGVPSRFSGSGSGTDFTLTISSLQPEDFATYYCQQYNNYPPTFGQGTKLEIKRTVAAPDIQMTQSPSSLSASVGDRVTITCSASQDISNYLNWYQQKPGKAPKVLIYFTSSLHSGVPSRFSGSGSGTDFTLTISSLQPEDFATYYCQQYSTVPWTFGQGTKVEIK
notes: also called SS DLL4-VEGF DVD-Ig variant N31G
[9]
  Affinity relative to WT: 1.1 fold
